Target: GluN1 NMDA receptor subunit, isoform GluN1-2a, with a fluorescent protein on the C-terminus (GluN1-GFP; GluN1-mCherry)
Assay: FRET or BRET

GluN1 NMDA receptor subunit, isoform GluN1-2a, with a fluorescent protein on the C-terminus (GluN1-GFP; GluN1-mCherry)
FRET efficiency: 5.8%
